In PMC11828871, “Structural basis of anticancer drug recognition and amino acid transport by LAT1” (Nature Communications, 2025):

Assays:
[1] = target: T1, LAT1–CD98hc heterodimeric complex (human, UniProt Q01650;P08195); assay: cryo-EM structure; LAT1–CD98hc in lipid nanodiscs (POPC:POPG:cholesterol 2:2:1, MSP2N2) complexed with Fab170, gel filtration; SEC buffer 20 mM Tris-HCl pH 9.0, 150 mM NaCl; with JPH203, L-Phe, melphalan, BCH, T3 or no ligand; conditions: both partners purified
T1 construct: LAT1 (SLC7A5), human; as the chain of m1; CD98hc (4F2hc; SLC3A2), human; as the chain of m2
T1 sequence (Q01650 whole entry, chain 1 of 2): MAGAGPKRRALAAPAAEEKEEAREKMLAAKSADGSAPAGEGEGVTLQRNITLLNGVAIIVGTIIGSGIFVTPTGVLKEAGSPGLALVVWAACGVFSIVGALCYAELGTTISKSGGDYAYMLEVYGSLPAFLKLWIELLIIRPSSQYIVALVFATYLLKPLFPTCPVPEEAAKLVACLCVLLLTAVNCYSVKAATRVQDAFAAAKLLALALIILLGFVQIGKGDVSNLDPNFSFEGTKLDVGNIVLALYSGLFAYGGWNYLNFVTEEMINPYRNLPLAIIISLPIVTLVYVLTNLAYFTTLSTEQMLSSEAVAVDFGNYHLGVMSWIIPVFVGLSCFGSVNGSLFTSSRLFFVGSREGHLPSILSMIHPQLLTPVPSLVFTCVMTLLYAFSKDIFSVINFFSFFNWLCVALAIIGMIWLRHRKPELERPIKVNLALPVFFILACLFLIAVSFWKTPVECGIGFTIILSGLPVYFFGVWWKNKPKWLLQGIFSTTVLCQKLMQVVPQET
T1 sequence (P08195 102-630, chain 2 of 2): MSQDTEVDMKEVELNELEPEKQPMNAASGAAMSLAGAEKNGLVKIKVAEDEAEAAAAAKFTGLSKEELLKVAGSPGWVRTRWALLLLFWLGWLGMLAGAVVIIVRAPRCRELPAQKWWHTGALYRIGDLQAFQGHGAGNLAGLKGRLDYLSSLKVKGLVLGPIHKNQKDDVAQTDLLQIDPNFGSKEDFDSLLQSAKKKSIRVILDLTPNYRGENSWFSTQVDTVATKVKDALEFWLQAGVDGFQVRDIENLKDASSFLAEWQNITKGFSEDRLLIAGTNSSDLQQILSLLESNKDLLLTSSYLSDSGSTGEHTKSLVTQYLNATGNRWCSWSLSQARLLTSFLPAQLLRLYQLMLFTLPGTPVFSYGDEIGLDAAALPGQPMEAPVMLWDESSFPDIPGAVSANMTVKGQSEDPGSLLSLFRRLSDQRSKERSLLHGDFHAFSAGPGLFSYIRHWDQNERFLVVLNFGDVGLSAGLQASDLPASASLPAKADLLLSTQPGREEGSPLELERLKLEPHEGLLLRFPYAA

CD98hc (4F2hc; SLC3A2) = target: T2, CD98hc (4F2hc; SLC3A2) (human, UniProt P08195); assay: as above; conditions: both partners purified
T2 construct: CD98hc (4F2hc; SLC3A2), human, single membrane-spanning protein; The complex was purified by GFP-nanotrap and a FLAG-tag purification step was skipped; The TMD-only models hold only TM1' of CD98hc
T2 sequence (P08195 102-630): as the sequence (P08195 102-630, chain 2 of 2) above

B1: Fab fragment from clone 170 (Fab170) (Fab, V domains shown)
VH: EVQLQQSGAELVKPGASVNLSCKASGYTFTNYWMHWVRLRPGQGLEWIGEIDPSDSYSYYSQNFKGKATLTVDQSSNTAYLQLTSLTSEDSAVYYCARGRQTYYPWFPYWGQGTLVTVSA
VL: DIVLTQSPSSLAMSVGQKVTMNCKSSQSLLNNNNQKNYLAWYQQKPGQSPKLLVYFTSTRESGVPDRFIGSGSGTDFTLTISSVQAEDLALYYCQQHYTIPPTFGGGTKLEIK
notes: Mouse monoclonal antibody raised against liposomes with purified LAT1–CD98hc; source: mouse hybridoma culture supernatant; IgG purified by Protein G column, digested by papain, Fab further purified on Protein A column
Q: Does B1 bind [1]?
A: Result: binds

Q: Does B1 bind (CD98hc (4F2hc; SLC3A2))?
A: Result: binds
